Data from PMC6435701.

Experiments:
Myc-tagged ATAD3A = assay: co-immunoprecipitation (IP anti-Flag, WB anti-Myc), densitometry; conditions: HEK293 cells transfected for 48 h; five independent experiments; parent: est. 1.0; read off a plot
[1] = molecular target: ATAD3A K135E (Flag-tagged); assay: non-reducing western blot of ATAD3A dimer (with or without β-ME), densitometry; conditions: HEK293 cells transfected for 48 h; at least 6 independent experiments; parent: est. 1.0; read off a plot
[2] = molecular target: ATAD3A K135Q (Flag-tagged); assay: as above; conditions: HEK293 cells transfected for 48 h; at least 6 independent experiments; parent: est. 1.0; read off a plot

| ratio to parent (Myc-tagged ATAD3A) | ratio to parent [1] | ratio to parent [2] | Substance |
| --- | --- | --- | --- |
| 1.6 | 2.3 |  | ATAD3A-Flag wildtype (in HEK293 cells) K135E |
| 0.58 |  | 0.8 | ATAD3A-Flag wildtype (in HEK293 cells) K135Q |
